Test results as given in PMC5042579 (Molecular Biology of the Cell, 2016).
Values belong to the binder of their own block, whether it stands above or below them.

Tests used:
[1] = biological target: T1, tau (human 1N4R-tau isoform, 412 amino acids) (human, UniProt P10636-7 1-412); assay: TIRF microscopy of reconstituted dynamic microtubules
[2] = biological target: T1, tau (human 1N4R-tau isoform, 412 amino …); assay: pull-down
[3] = biological target: T1, tau (human 1N4R-tau isoform, 412 amino …); assay: other fluorescence titration

binding result [1]: binds
B1: GFP-EB1-Δ-tail (GFP-EB1 lacking the last 20 amino acid residues) (domain or fragment)
chain: MAVNVYSTSVTSDNLSRHDMLAWINESLQLNLTKIEQLCSGAAYCQFMDMLFPGSIALKKVKFQAKLEHEYIQNFKILQAGFKRMGVDKIIPVDKLVKGKFQDNFEFVQWFKKFFDANYDGKDYDPVAARQGQETAVAPSLVAPALNKPKKPLTSSSAAPQRPISTQRTAAAPKAGPGVVRKNPGVGNGDDEAAELMQQVNVLKLTVEDLEKERDFYFGKLRNIELICQENEGENDPVLQRIVDILYA

binding result [2]: binds
B2: biotinylated EB1 (mouse end-binding protein 1) (natural protein)
chain: MAVNVYSTSVTSDNLSRHDMLAWINESLQLNLTKIEQLCSGAAYCQFMDMLFPGSIALKKVKFQAKLEHEYIQNFKILQAGFKRMGVDKIIPVDKLVKGKFQDNFEFVQWFKKFFDANYDGKEYDPVAARQGQETAVAPSLVAPALSKPKKPLGSSTAAPQRPIATQRTTAAPKAGPGMVRKNPGVGNGDDEAAELMQQVKVLKLTVEDLEKERDFYFGKLRNIELICQENEGENDPVLQRIVDILYATDEGFVIPDEGGPQEEQEEY
modifications: biotin (EZ-Link NHS-Chromogenic Biotinylation Kit)

Kd [3]: 1700 ± 1100 nM
B3: EB1 (mouse end-binding protein 1), not labelled (natural protein)
chain: B2 chain
